According to patent US20220155321A1 (published 2022):
Where a chain is given by its changes, count along the chain named. Blank lines part the entries; values can stand above or below the binder they belong to.

Biological target: T1, peptide on HLA-A*01:01 (human)
T1 peptide: ASSLPTTMNY
Assay: multimer staining

binding result: recognises
B3: Reference H (TCR, V domains shown)
Valpha: GESVGLHLPTLSVQEGDNSIINCAYSNSASDYFIWYKQESGKGPQFIIDIRSNMDKRQGQRVTVLLNKTVKHLSLQIAATQPGDSAVYFCAENMGGAGKSTFGDGTTLTVKP
Vbeta: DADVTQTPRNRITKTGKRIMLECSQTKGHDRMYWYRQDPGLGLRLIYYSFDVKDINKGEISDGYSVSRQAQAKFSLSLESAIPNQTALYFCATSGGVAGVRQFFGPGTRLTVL

binding result: recognises
B4: Reference C (TCR, V domains shown)
Valpha: RKEVEQDPGPFNVPEGATVAFNCTYSNSASQSFFWYRQDCRKEPKLLMSVYSSGNEDGRFTAQLNRASQYISLLIRDSKLSDSATYLCVVPRMDSSYKLIFGSGTRLLVRP
Vbeta: KAGVTQTPRYLIKTRGQQVTLSCSPISGHRSVSWYQQTPGQGLQFLFEYFSETQRNKGNFPGRFSGRQFSNSRSEMNVSTLELGDSALYLCASSSTGARRSREQYFGPGTRLTVT

binding result: recognises
B5: Reference G (TCR, V domains shown)
Valpha: SQQGEEDPQALSIQEGENATMNCSYKTSINNLQWYRQNSGRGLVHLILIRSNEREKHSGRLRVTLDTSKKSSSLLITASRAADTASYFCATAVFNFGNEKLTFGTGTRLTIIP
Vbeta: B4 Vbeta with T96M, G97T, A98S, R99G, R100G, S101P, R102W

The remaining lines, values behind:

B1: Reference E (TCR, V domains shown)
Valpha: GQQVMQIPQYQHVQEGEDFTTYCNSSTTLSNIQWYKQRPGGHPVFLIQLVKSGEVKKQKRLTFQFGEAKKNSSLHITATQTTDVGTYFCAGQGNRDDKIIFGKGTRLHILP
Vbeta: DGGITQSPKYLFRKEGQNVTLSCEQNLNHDAMYWYRQDPGQGLRLIYYSQIVNDFQKGDIAEGYSVSREKKESFPLTVTSAQKNPTAFYLCASSLEWGPYEQYFGPGTRLTVT
binding result: recognises

B2: Reference F (TCR, V domains shown)
Valpha: QKEVEQNSGPLSVPEGAIASLNCTYSDRGSQSFFWYRQYSGKSPELIMFIYSNGDKEDGRFTAQLNKASQYVSLLIRDSQPSDSATYLCAVKDNNARLMFGDGTQLVVKP
Vbeta: KAGVTQTPRYLIKTRGQQVTLSCSPISGHRSVSWYQQTPGQGLQFLFEYFSETQRNKGNFPGRFSGRQFSNSRSEMNVSTLELGDSALYLCASSLSSGLYEQYFGPGTRLTVT
binding result: recognises
